B1: GST-(SH3)+ (other)
chain: RGLQLQCRGAGGRPVLYQVVAQHSYSAQGPEDLGFRQGDTVDVLCEEPDVPLAVDQAWLEGHCDGRIGIFPKCFVVPAGPRMSGAPGRLPRSQQGDQP
notes: Cloned at the EcoRI site of pGEX-3X in frame with GST; the linker is not described; also called fusion protein of GST and the C-terminal NOXA1(SH3+) polypeptide; not shown: glutathione-S-transferase (GST) encoded by vector pGEX-3X
B2: human p47^phox (other, UniProt P14598 1-390, looked up)
chain: MGDTFIRHIALLGFEKRFVPSQHYVYMFLVKWQDLSEKVVYRRFTEIYEFHKTLKEMFPIEAGAINPENRIIPHLPAPKWFDGQRAAENRQGTLTEYCSTLMSLPTKISRCPHLLDFFKVRPDDLKLPTDNQTKKPETYLMPKDGKSTATDITGPIILQTYRAIANYEKTSGSEMALSTGDVVEVVEKSESGWWFCQMKAKRGWIPASFLEPLDSPDETEDPEPNYAGEPYVAIKAYTAVEGDEVSLLEGEAVEVIHKLLDGWWVIRKDDVTGYFPSMYLQKSGQDVSQAQRQIKRGAPPRRSSIRNAHSIHQRSRKRLSQDAYRRNSVRFLQQRRRQARPGPQSPGSPLEEERQTQRSKPQPAVPPRPSADLILNRCSESTKRKLASAV
modifications: labeled in vitro with [35S]-methionine/[35S]-cysteine
notes: no residue limits are printed
B3: MBP-NOXO1(288-370) (other, human, UniProt Q8NFA2 294-376, looked up, not shown: large carriers)
chain: EGLGALLSGTGFRGGDDPAGEARGFPEPSQATAPPPTVPTRPSPGAIQSRCCTVTRRALERRPRRQGRPRGCVDSVPHPTTEQ
modifications: labeled in vitro with [35S]-methionine/[35S]-cysteine
notes: range 294-376; Cloned at the SacI/XhoI sites of pET23bMBPH6 in frame with MBP; linker and any vector tag are not described; Made by in vitro coupled transcription/translation; also called NBP-NOXO1(288-370)

The test “human p47^phox” addresses B2. Kind of test: GST pull-down of 35S-labelled p47phox with isolated SH3-containing polypeptides. Here is the method: (§1) Binding interactions are carried out between GST, GST-NOXA1, GST-NOXA1_{SH3+)}, GST-(SH3wt) and GST-(SH3+) fusion proteins immobilized on GSH-Sepharose, and the in vitro synthesized [³⁵S]-labeled target proteins. Volumes of fusion protein bacterial lysates, previously determined to give equal loading of the GSH-Sepharose, are mixed for 5 min at room temperature with 250 μl of a 50% suspension of washed GSH-Sepharose in PBS (137 mM NaCl, 2.68 mM KCl, […] Na2HPO4, pH 7.3). The suspension is washed twice and resuspended to 500 μl in PBS with 10 mM DTT. Human NOX1, NOX2, p47^phox and MBP-NOXO1₍₂₈₈₋₃₇₀₎ are synthesized and labeled in vitro with [³⁵S]-methlionine/[³⁵S]-cysteine (Redivue Pro-mix L-[³⁵S] labeling mix, Amersham Biosciences, Inc. # AGQ0080) using the TNT® Coupled Reticulocyte Lysate System (Promega) and T7 RNA polymerase. A 24 μl aliquot of the labeling reaction is mixed with 476 μl of the resuspended immobilized GST fusion protein for 15 min at room temperature. The gel pellet is washed 4X with 500 μl of PBS/10 mM DTT/0.05% Triton X-100. […] The entire volume of the denatured samples is separated on 9% SDS-PAGE and analyzed by fluorography. A sample of the original binding gel is analyzed by denaturing SDS-PAGE and Coomassie staining to confirnm the loading of the GST proteins. […]

Test [1] addresses T1, GST-NOXA1(SH3+) (human, UniProt Q86UR1 1-476).
T1 construct: the vector-encoded linker is not described; Immobilised on GSH-Sepharose; not shown: glutathione-S-transferase (GST) encoded by vector pGEX-3X
T1 sequence: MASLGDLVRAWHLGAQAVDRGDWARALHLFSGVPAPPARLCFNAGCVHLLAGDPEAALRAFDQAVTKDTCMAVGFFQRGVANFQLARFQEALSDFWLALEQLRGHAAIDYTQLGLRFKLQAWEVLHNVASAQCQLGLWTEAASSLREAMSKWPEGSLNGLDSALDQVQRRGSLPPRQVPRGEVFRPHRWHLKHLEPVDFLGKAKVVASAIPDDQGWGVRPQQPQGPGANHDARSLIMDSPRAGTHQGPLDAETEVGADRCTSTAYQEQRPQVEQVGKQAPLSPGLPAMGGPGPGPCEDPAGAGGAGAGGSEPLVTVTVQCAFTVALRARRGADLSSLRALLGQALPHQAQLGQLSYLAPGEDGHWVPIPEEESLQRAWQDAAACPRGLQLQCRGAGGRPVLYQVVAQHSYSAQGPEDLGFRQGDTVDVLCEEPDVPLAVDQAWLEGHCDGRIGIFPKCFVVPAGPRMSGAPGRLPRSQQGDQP
Kind of test: GST pull-down of 35S-labelled p47phox, SDS-PAGE and fluorography. Here is the method:
as §1

For the test “GST-(SH3)+”, the target named is B1. Kind of test: GST pull-down of 35S-labelled MBP-NOXO1(288-370) with isolated SH3-containing polypeptides. Here is the method: as §1
Test [2] deals with T1, GST-NOXA1(SH3+). Kind of test: GST pull-down of 35S-labelled MBP-NOXO1(288-370), SDS-PAGE and fluorography. Here is the method: as §1

Consider B1, for which the binding result with human p47^phox is “no binding”.

On to B2, for which the binding result with GST-NOXA1(SH3+) [1] is reported as “no binding”.

For the molecule B3, the binding result with GST-(SH3)+ and in the test with GST-NOXA1(SH3+) [2] was “no binding” each time.

Source of the values: patent US20070098706A1 (University of Texas, published 2007).
